Data published in PMC2132829.

Assays:
[1] = target: Xmad2 (Xenopus laevis (endogenous in egg extracts)); experiment: co-IP
[2] = target: Xmad1 (Xenopus laevis (endogenous in egg extracts)); experiment: co-IP

| Substance | percent of Xmad1 removed by immunodepletion of Xmad2 [1] | percent of Xmad2 bound with Xmad1 [2] |
| --- | --- | --- |
| Xmad1 (natural protein) | > 95% | – |
| Xmad2 (natural protein) | – | 40% |
